The target of the experiment is T1, endogenous IQGAP1 (human, UniProt P46940 2-1657).
T1 construct: also called cellular IQGAP1
Kind of experiment: TAP of SFB-FOXO1 from 293T cells, LC-MS/MS.

T1 sequence (P46940 2-1657 limits assumed): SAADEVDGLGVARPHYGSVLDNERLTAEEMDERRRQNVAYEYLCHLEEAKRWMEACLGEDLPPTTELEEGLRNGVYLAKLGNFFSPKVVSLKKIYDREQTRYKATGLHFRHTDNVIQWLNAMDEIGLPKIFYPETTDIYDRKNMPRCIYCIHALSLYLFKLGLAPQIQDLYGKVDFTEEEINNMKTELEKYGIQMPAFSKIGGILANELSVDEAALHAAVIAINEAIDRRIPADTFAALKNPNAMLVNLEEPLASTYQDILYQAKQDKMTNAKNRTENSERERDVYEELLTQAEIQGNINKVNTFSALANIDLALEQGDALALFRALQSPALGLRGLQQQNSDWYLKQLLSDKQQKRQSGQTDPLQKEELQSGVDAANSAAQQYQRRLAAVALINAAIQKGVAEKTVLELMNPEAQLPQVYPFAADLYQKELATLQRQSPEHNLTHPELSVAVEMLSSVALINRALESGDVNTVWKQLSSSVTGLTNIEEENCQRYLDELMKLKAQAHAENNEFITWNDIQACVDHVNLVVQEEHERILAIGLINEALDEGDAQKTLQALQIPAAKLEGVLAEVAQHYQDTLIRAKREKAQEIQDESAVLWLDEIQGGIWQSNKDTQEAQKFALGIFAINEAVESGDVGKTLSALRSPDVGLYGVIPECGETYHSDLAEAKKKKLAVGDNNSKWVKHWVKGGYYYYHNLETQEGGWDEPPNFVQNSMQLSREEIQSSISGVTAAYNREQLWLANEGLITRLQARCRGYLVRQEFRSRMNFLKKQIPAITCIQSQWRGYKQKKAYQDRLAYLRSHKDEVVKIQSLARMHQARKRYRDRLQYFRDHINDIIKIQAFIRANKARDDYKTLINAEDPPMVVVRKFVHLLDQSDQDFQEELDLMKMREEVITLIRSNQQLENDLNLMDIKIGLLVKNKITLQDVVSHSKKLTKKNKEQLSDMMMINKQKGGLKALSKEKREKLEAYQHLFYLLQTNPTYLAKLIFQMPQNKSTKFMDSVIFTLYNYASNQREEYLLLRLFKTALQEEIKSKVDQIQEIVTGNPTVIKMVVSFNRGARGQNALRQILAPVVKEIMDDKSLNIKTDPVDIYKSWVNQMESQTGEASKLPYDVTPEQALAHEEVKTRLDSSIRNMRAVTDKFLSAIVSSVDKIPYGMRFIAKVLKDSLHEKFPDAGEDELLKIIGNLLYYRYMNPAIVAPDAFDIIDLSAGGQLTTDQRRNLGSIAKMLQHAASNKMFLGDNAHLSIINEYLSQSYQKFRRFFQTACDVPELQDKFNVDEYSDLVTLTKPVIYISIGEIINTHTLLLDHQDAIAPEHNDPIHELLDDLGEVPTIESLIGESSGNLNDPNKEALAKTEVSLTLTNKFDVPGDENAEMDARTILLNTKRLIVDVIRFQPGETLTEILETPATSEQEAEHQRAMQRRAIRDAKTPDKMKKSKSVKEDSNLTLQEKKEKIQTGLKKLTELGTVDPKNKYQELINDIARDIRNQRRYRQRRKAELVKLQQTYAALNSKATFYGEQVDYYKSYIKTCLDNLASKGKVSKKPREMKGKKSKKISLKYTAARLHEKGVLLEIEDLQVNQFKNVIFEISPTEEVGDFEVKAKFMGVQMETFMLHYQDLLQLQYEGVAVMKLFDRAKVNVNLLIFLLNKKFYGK
Description: 24 hours after transfection, cells were lysed by NETN buffer (20 mM Tris-HCl, pH8.0, 100 mM NaCl, 1 mM EDTA, 0.5% Nonidet P-40) with 50 mM β-glycerophosphate, 10 mM NaF, and 1 μg/mL pepstatin-A at 4° C. for 3 hours. The supernatants were incubated with streptavidin sepharose beads (GE) at 4° C. overnight. The beads were washed with NETN buffer for three times and then eluted by 2 mM biotin (Sigma) for 1 hour at 4° C. twice. The elution products were incubated with S-protein agarose beads (Novagen) overnight at 4° C. and after three times wash the products bound to S-protein agarose beads were subjected to SDS-PAGE and visualized by silver staining or Code-blue staining.
Briefly, excised gel bands were cut into approximately 1 mm³ pieces. […] Gel pieces were washed and dehydrated with acetonitrile for 10 minutes followed by removal of acetonitrile. Pieces were then completely dried in a speed-vac. […] After 45 minutes, the excess trypsin solution was removed and replaced with 50 mM ammonium bicarbonate solution to just cover the gel pieces. Samples were then placed in a 37° C. room overnight. Peptides were later extracted by removing the ammonium bicarbonate solution, followed by one wash with a solution containing 50% acetonitrile and 1% formic acid. The extracts were then dried in a speed-vac (˜1 hour). The samples were then stored at 4° C. until analysis.

B1: SFB-tagged FOXO1 (other, human, UniProt Q12778 1-655, looked up)
chain: MAEAPQVVEIDPDFEPLPRPRSCTWPLPRPEFSQSNSATSSPAPSGSAAANPDAAAGLPSASAAAVSADFMSNLSLLEESEDFPQAPGSVAAAVAAAAAAAATGGLCGDFQGPEAGCLHPAPPQPPPPGPLSQHPPVPPAAAGPLAGQPRKSSSSRRNAWGNLSYADLITKAIESSAEKRLTLSQIYEWMVKSVPYFKDKGDSNSSAGWKNSIRHNLSLHSKFIRVQNEGTGKSSWWMLNPEGGKSGKSPRRRAASMDNNSKFAKSRSRAAKKKASLQSGQEGAGDSPGSQFSKWPASPGSHSNDDFDNWSTFRPRTSSNASTISGRLSPIMTEQDDLGEGDVHSMVYPPSAAKMASTLPSLSEISNPENMENLLDNLNLLSSPTSLTVSTQSSPGTMMQQTPCYSFAPPNTSLNSPSPNYQKYTYGQSSMSPLPQMPIQTLQDNKSSYGGMSQYNCAPGLLKELLTSDSPPHNDIMTPVDPGVAQPNSRVLGQNVMMGPNSVMSTYGSQASHNKMMNPSSHTHPGHAQQTSAVNGRPLPHTVSTMPHTSGMNRLTQVKTPVQVPLPHPMQMSALGGYSSVSSCNGYGRMGLLHQEKLPSDLDGMFIERLDCDMESIIRNDLMDGDTLDFNFDNVLPNQSFPHSVKTTTHSWVSG
notes: also called SFB-FOXO1; not shown: about 12 kDa, 119 amino acid
Regarding B1, the binding result is “binds”.

The values above are taken from patent US20190194276A1 (MAYO FOUNDATION FOR MEDICAL EDUCATION AND RESEARCH, published 2019).
